# From PMC8708666 (2021)
# Molecular target: Integrin alpha1beta1 (Homo sapiens, UniProt P56199)
# Test: MST
# Sequence of Integrin alpha1beta1 (P56199 29-1141, chain 1 of 2): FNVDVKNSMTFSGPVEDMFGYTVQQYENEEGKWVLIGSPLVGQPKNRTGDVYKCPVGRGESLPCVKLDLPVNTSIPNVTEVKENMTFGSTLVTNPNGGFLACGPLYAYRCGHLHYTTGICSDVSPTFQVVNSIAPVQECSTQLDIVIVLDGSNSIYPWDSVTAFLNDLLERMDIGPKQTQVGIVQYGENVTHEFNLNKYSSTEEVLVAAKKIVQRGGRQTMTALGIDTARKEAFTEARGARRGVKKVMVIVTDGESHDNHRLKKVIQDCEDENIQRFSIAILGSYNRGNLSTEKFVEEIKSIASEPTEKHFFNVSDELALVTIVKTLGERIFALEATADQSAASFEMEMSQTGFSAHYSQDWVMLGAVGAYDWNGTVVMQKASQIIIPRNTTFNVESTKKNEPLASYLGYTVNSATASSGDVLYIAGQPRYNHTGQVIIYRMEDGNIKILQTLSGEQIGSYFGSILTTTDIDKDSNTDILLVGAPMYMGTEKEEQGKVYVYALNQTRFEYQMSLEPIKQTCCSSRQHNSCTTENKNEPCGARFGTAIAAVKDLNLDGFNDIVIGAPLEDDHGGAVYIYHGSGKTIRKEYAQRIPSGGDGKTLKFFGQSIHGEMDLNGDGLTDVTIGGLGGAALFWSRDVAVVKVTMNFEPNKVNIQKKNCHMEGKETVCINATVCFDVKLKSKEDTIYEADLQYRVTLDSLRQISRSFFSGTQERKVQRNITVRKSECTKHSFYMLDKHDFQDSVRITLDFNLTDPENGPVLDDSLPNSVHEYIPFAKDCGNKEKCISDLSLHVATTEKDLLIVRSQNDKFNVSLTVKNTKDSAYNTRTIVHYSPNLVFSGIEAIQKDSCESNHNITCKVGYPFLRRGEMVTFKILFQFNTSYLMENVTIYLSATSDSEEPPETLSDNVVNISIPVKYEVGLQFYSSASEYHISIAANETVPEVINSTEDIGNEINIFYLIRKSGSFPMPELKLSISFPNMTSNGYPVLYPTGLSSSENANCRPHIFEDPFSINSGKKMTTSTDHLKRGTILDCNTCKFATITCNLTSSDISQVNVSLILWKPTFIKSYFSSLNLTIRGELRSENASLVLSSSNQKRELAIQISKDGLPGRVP
# Sequence of Integrin alpha1beta1 (chain, as listed by the source, chain 2 of 2): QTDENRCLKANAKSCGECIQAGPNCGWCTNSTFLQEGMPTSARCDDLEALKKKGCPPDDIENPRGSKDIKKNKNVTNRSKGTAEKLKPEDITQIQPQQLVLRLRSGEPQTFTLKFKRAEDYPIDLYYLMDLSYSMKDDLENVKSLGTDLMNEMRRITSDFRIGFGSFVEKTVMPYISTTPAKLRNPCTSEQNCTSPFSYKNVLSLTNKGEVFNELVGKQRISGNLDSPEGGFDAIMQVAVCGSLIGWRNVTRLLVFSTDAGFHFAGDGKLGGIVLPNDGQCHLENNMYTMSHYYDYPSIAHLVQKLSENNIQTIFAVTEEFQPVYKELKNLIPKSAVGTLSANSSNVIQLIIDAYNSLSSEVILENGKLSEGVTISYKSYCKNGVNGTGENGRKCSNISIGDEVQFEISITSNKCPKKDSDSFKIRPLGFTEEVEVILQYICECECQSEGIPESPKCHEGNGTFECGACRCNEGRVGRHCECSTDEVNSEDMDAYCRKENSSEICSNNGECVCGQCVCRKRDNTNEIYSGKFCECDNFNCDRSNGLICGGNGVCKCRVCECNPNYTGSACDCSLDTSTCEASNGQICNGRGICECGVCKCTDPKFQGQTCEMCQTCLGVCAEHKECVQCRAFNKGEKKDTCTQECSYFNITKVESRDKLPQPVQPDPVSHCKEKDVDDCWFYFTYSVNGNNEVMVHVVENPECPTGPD
row,Binder,Kd [µM]
1,LAPGSFKGMK [Collagen alpha-6(IV) chain peptide 4],59.2
2,GFQGEKGVKG [Collagen alpha-6(IV) chain peptide 5],790
3,KGARGDRGSG [Collagen alpha-6(IV) chain peptide 10],47.3
4,NKESGFPGLR [Collagen alpha-6(IV) chain peptide 8],1470
5,FKGTKGRDGL [Collagen alpha-6(IV) chain peptide 25],351
6,GPPGSIVKKG [Collagen alpha-6(IV) chain peptide 19],2190
7,DPGFPGMKGK [Collagen alpha-6(IV) chain peptide 30],19.7
